Tested on: rabbit model of thromboembolic stroke
Assay: Rabbit model of thromboembolic stroke (clot embolization)
Type: in vivo
Conditions: 16-HETE 1 mg/kg per minute for 1 h from 1 h after embolization; tPA 6.3 mg/kg at 3-5 h; FIG. 3
Method: New Zealand rabbits of either sex, weighing 3-4 kilograms were used for the study. Prior to the start of the experiment, the rabbits were divided into three groups, those that were administered both 16-HETE at a rate of 1 mg/kg per minute for one hour and tPA (Genentech, Inc., San Francisco, Calif.) at a concentration of 6.3 mg/kg, tPA alone, or vehicle.
On the day of treatment the animals were fasted for 12 hours with free access to water and then anesthetized with an intramuscular solution of ketamine (50 mg/kg), acepromazine (20 mg) and xylazine (5 mg/kg). This solution was subsequently used to maintain a surgical depth of anesthesia as determined by responses to various physiologic and autonomic stimuli, including mean arterial pressure and response to paw pinch.
The animals were prepared for surgery by introducing femoral venous and arterial catheters (PE50 and 90, respectively; Clay Adams, Parsippany, N.J.). The catheters were placed for subsequent blood sampling, including blood gas and arterial pressure, drug infusions, and fluid replacement.
All animals were tracheotomized and mechanically ventilated in order to maintain arterial blood gases within a physiologic range. Arterial blood gas measurements (pH, pCO2, pO2) were determined, using a Corning 168 blood gas monitor. […]

B1: tPA: tissue plasminogen activator, thrombolytic agent (Genentech, Inc.) (protein, UniProt P00750 36-562, looked up)
Tissue-type plasminogen …: SYQVICRDEKTQMIYQQHQSWLRPVLRSNRVEYCWCNSGRAQCHSVPVKSCSEPRCFNGGTCQQALYFSDFVCQCPEGFAGKCCEIDTRATCYEDQGISYRGTWSTAESGAECTNWNSSALAQKPYSGRRPDAIRLGLGNHNYCRNPDRDSKPWCYVFKAGKYSSEFCSTPACSEGNSDCYFGNGSAYRGTHSLTESGASCLPWNSMILIGKVYTAQNPSAQALGLGKHNYCRNPDGDAKPWCHVLKNRRLTWEYCDVPSCSTCGLRQYSQPQFRIKGGLFADIASHPWQAAIFAKHRRSPGERFLCGGILISSCWILSAAHCFQERFPPHHLTVILGRTYRVVPGEEEQKFEVEKYIVHKEFDDDTYDNDIALLQLKSDSSRCAQESSVVRTVCLPPADLQLPDWTECELSGYGKHEALSPFYSERLKEAHVRLYPSSRCTSQHLLNRTVTDNMLCAGDTRSGGPQANLHDACQGDSGGPLVCLNDGRMTLVGIISWGLGCGQKDVPGVYTKVTNYLDWIRDNMRP
- brain infarct size: significantly larger

Reference: patent US6903135B2, “Methods and products related to 16-HETE analogs” (Board of Regents, The University of Texas System, priority 1998, dated 2005)
